Measurements published in US20160289698A1 (TRUSTEES OF DARTMOUTH COLLEGE, published 2016).

T1: ARR12 (Arabidopsis, UniProt P62598 1-596)
T1 construct: YFP^N or YFP^C fusion of the full-length cDNA in BiFC; also called AtARR12; type-B response regulator AtARR12
T1 sequence (looked up): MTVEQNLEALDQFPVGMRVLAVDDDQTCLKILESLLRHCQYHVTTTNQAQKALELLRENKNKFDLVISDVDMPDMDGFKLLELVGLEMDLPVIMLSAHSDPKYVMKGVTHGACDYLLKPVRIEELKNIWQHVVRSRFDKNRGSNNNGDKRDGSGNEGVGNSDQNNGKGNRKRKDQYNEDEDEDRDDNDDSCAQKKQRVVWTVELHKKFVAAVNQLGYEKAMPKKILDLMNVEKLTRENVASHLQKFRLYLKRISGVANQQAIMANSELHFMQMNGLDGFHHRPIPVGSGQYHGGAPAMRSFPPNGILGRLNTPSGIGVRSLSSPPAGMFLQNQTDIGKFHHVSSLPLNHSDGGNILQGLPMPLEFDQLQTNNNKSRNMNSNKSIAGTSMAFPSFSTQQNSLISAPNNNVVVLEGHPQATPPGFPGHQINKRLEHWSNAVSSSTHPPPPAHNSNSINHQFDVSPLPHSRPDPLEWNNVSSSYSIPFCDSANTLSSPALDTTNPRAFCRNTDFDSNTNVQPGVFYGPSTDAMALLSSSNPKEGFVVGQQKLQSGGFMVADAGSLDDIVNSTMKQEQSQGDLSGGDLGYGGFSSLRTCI

T2: ARR2 (Arabidopsis, UniProt Q9ZWJ9 1-664, limits assumed)
T2 construct: also called type-B response regulator ARR2
T2 sequence (looked up): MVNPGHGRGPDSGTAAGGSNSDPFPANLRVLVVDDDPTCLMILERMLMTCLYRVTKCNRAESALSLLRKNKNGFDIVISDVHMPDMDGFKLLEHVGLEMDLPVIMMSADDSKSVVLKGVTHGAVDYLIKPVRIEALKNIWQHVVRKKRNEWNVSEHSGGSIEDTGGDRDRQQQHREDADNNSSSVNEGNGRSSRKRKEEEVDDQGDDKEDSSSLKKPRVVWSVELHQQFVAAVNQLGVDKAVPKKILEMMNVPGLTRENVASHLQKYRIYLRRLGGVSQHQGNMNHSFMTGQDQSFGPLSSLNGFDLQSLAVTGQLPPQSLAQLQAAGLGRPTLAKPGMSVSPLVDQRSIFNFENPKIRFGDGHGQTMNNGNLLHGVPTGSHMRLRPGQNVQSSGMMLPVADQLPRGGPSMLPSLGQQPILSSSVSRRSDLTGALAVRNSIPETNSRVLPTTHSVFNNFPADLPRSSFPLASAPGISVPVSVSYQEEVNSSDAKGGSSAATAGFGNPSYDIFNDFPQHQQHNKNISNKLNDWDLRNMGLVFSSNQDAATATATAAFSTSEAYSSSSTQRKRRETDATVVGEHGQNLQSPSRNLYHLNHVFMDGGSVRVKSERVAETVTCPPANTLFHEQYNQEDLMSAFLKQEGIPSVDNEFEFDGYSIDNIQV

T3: ARR10 (Arabidopsis, UniProt O49397 1-552, limits assumed)
T3 construct: also called type-B response regulator ARR10
T3 sequence (looked up): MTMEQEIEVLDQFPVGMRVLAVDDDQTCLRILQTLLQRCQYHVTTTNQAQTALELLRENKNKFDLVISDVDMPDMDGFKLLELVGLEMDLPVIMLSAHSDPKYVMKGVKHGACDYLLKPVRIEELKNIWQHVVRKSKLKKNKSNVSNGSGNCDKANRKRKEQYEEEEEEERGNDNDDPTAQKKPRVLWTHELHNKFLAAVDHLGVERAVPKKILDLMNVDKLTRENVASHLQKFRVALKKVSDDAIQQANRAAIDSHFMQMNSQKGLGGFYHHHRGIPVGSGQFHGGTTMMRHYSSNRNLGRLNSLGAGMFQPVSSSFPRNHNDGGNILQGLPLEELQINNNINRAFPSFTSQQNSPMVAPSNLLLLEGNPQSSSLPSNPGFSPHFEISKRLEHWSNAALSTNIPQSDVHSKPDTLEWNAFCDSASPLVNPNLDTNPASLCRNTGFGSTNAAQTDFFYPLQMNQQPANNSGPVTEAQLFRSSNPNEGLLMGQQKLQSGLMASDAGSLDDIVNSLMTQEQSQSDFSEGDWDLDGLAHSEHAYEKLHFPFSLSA

T4: ARR20 (type-B ARR subfamily-3) (Arabidopsis, UniProt Q9LZJ8 1-426, limits assumed)
T4 sequence (looked up): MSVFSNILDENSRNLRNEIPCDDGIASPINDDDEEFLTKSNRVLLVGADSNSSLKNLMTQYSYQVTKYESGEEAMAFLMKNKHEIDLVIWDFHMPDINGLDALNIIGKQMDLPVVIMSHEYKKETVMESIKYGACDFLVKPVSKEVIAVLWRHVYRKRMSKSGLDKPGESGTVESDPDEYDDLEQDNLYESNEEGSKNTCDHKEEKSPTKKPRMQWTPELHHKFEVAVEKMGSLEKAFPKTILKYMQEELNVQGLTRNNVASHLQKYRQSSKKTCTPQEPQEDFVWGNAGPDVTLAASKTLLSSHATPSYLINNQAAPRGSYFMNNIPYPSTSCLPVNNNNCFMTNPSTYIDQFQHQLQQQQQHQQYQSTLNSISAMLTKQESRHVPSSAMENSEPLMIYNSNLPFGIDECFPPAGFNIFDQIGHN

T5: ARR21 (subfamily-3) (Arabidopsis, UniProt Q9LYP5 1-613, limits assumed)
T5 sequence (looked up): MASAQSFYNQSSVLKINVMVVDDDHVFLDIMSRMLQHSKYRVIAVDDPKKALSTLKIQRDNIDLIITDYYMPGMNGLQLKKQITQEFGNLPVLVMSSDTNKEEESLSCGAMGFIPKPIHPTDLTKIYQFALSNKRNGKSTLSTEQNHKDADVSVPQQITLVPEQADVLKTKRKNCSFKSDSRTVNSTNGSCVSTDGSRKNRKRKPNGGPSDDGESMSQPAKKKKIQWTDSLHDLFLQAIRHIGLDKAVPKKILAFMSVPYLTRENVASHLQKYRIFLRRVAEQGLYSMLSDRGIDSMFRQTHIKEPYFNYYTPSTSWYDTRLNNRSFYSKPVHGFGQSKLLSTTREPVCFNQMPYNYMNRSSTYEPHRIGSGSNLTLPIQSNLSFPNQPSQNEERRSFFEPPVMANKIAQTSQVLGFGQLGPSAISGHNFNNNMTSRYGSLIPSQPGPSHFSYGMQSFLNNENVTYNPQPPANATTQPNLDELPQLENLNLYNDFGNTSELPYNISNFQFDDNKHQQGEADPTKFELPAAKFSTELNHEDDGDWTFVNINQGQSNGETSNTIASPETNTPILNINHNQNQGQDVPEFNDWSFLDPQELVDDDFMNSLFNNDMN


How the values were obtained:
Experiment in all cases: yeast two-hybrid (LexA-KMD bait, B42-ARR prey, X-gal)
ARR12 = biological target: T1, ARR12
Text: (§1) The DUPLEX-A™ system (OriGene Technologies) was used for yeast two-hybrid analysis of interactions. KMD cDNAs were cloned into the pGilda bait vector, which produces an in-frame fusion with the LexA DNA-binding domain. Type-B ARR coding sequences were cloned into the pJG4-5 prey vector, which produces a B42 activation domain. The yeast strain EGY48 (MATa, trp1, his3, ura3, leu2::6 LexAop-LEU2) that contains the lacZ reporter plasmid pSH18-34 was transformed with the appropriate “bait” and “prey” plasmids. Interactions were tested on 5-bromo-4-chloro-3-indolyl-p-D-galactopyranoside (X-gal) medium (Ryu, et al. (2005) Cell 120(3): 395-406).
(§2) The KMD proteins also interacted with ARR20 (type-B ARR subfamily-3), but not with ARR19 (subfamily-2) and ARR21 (subfamily-3). […] All four KMD proteins interacted with both ARR1 and ARR12 in a BiFC assay. Strong fluorescence was detected in the nuclei of cells, consistent with the subcellular localization of the type-B ARRs (Hwang & Sheen J (2001) Nature 413(6854):383-389; Mason, et al. (2004) Plant Physiol. 135(2):927-937).

ARR2 = biological target: T2, ARR2
Text: as §1, §2

ARR10 = biological target: T3, ARR10
Text: as §1, §2

[1] = biological target: T4, ARR20 (type-B ARR subfamily-3)
Text: as §1, §2

ARR21 (subfamily-3) = biological target: T5, ARR21 (subfamily-3)
Text: as §1, §2

binding result (ARR12)	binding result (ARR2)	binding result (ARR10)	binding result [1]	binding result (ARR21 (subfamily-3))	Binder
binds	binds	binds	binds	no binding	KISS ME DEADLY 3 (KMD3) (other, Arabidopsis, UniProt O80582 1-409, looked up, Full-length protein; LexA fusion in yeast two-hybrid, YFP^N or YFP^C fusion in BiFC; also called At2g44130) MTMEVSKKKGGDFQQCHELIPGLPSELALECLVRVPFQFQSAMRSVCRSWRSLLSDSSFIQERRRCGKTELLLCLVQPLTPPIPASKSVDETLMVDEKKSEDESHPRVFCTPRFGLSVYNAAMSTWHRVAFPEEEQIPLFCECVVLQDAGKILLIGGWDPETLQPTRDVYVLEFAGRKWRRGAPMKESRSFFACASVSPTKVYVAGGHDDQKNALRSAEVYDVEKDEWSSVTPMTEGRDECQGFAVGMGLRFCVLSGYGTESQGRFRSDGEIYDPATDSWSRIDNVWRFPDTSPRGRTAGDFRSSSTLWCFTDTDLQSERRWETNDDSRNLKLDLQSIQLPMTGSSVFAGSLGGESVVMIGGKRESEGEGEGGVMMKMTTEKKMGKWSHHVHIPCDFSTLPFSHASIYV
binds	binds	binds	binds	no binding	KISS ME DEADLY 4 (KMD4) (other, Arabidopsis, UniProt Q9M1Y1 1-418, looked up, Full-length protein; LexA fusion in yeast two-hybrid, YFP^N or YFP^C fusion in BiFC; also called At3g59940) MGVSKKKSGEIRGDLIPGLPEELAIECLVRVPFQFHSSIKSVCRSWKCVISSRSFIKERIGFGKAESLLCLVQPLTSPPSPAMMEGGEMSQKKKEEEEGESQMTQQLLQPRITGTPLYGLSVYNATLDTWHRVAIPERIPLFCECVAIQDAGKVLLIGGWDPETLQPVRDVFVLDFFAGEGSGRRFRRGRPMSAARSFFACASVGSTKVYVAGGHDDQKNALRSAEVYDVEKDEWSMLPPMTEGRDECHGFSMATDPGFCVLSGYGTETQGQFRSDGEIYDPITNSWSTIENVWPFPDLSPRGRTAAAAAEFPGDFRGCRLWCFIDSERQSQPHWEVEDDSMKWKVIMDTIRLPVTTMTSVFAGSLSGQAVAMIGGGGEESGTMMVKTTAEKNGGKWSHVNTPSGFSSLPFSCSSIYV
